# Experimental data taken from the Human Domainome abundance scans (Beltran et al. 2025).
# ± gives the uncertainty stated by the source.
# B1: Retinoic acid receptor RXR-alpha, residues 132 to 208; numbered along this chain, P19793 (parent)
# chain: KHICAICGDRSSGKHYGVYSCEGCKGFFKRTVRKDLTYTCRDNKDCLIDKRQRNRCQYCRYQKCLAMGMKREAVQEE
# Variants of: B1
# Assay: abundance fitness (aPCA) (normalised: wild type 0, dead -1); higher = more abundant; growth selection in yeast, the domain comes from the species named
# Details: Homo sapiens
row,Variant,abundance fitness
1,R41I,0.041 ± 0.033
2,R41D,0.056 ± 0.038
3,R41N,-0.05 ± 0.032
4,R41V,-0.01 ± 0.031
5,R41P,0.059 ± 0.029
6,R41T,0.035 ± 0.029
7,R41E,0.14 ± 0.05
8,R41M,0.018 ± 0.039
9,R41L,-0.091 ± 0.026
10,R41Q,0.041 ± 0.043
11,R41C,0.096 ± 0.035
12,R41F,0.032 ± 0.031
13,R41K,0.026 ± 0.05
14,R41G,0.095 ± 0.04
15,R41H,0.06 ± 0.033
16,R41Y,-0.002 ± 0.032
17,R41W,-0.007 ± 0.057
18,G26C,-0.077 ± 0.041
19,G26M,-0.071 ± 0.035
20,G26S,-0.087 ± 0.029
21,G26I,-0.116 ± 0.05
22,G26A,0.002 ± 0.033
23,G26Y,-0.081 ± 0.042
24,G26D,0.024 ± 0.04

row,Variant,abundance fitness
1,G26R,-0.018 ± 0.027
2,G26W,-0.052 ± 0.04
3,G26L,-0.132 ± 0.027
4,G26V,0.007 ± 0.03
5,G26H,-0.021 ± 0.044
6,G26N,-0.123 ± 0.04
7,G26E,-0.043 ± 0.048
8,G26Q,0.038 ± 0.035
9,G26F,-0.138 ± 0.043
10,G26P,-0.503 ± 0.058
11,F27S,0.004 ± 0.31
12,K44I,0.05 ± 0.066
13,K44D,0.092 ± 0.056
14,K44N,0.025 ± 0.059
15,K44E,-0.033 ± 0.04
16,K44Q,-0.04 ± 0.05
17,K44Y,-0.119 ± 0.098
18,K44C,-0.025 ± 0.052
19,K44F,-0.024 ± 0.073
20,K44A,0.001 ± 0.038
21,K44P,-0.022 ± 0.054
22,K44H,-0.086 ± 0.078
23,K44L,-0.083 ± 0.035
24,K44M,-0.03 ± 0.036

row,Variant,abundance fitness
1,K44R,-0.019 ± 0.03
2,K44G,0.052 ± 0.028
3,K44S,-0.011 ± 0.035
4,K44V,-0.035 ± 0.031
5,K44T,0.057 ± 0.046
6,D45F,-0.104 ± 0.066
7,D45L,-0.062 ± 0.064
8,D45Y,-0.062 ± 0.063
9,D45T,-0.051 ± 0.051
10,D45R,0.001 ± 0.03
11,D45E,0.043 ± 0.037
12,D45N,-0.034 ± 0.061
13,D45M,-0.404 ± 0.19
14,D45P,-0.078 ± 0.057
15,D45K,0.058 ± 0.047
16,D45W,-0.025 ± 0.035
17,D45V,-0.021 ± 0.071
18,D45C,-0.049 ± 0.055
19,D45H,-0.066 ± 0.077
20,D45I,-0.123 ± 0.13
21,D45S,-0.029 ± 0.035
22,C24W,-1.01 ± 0.076
23,C24S,-1 ± 0.054
24,C24V,-0.917 ± 0.053

row,Variant,abundance fitness
1,C24Y,-1.09 ± 0.12
2,L47R,-0.109 ± 0.029
3,L47M,-0.048 ± 0.044
4,L47G,0.016 ± 0.027
5,L47F,0.011 ± 0.061
6,L47S,-0.122 ± 0.038
7,L47A,0.005 ± 0.035
8,L47E,0.004 ± 0.041
9,L47N,-0.098 ± 0.076
10,L47T,0.012 ± 0.049
11,L47W,0.005 ± 0.035
12,L47K,-0.062 ± 0.061
13,L47Q,-0.095 ± 0.071
14,L47V,-0.008 ± 0.033
15,L47P,-0.045 ± 0.054
16,L47Y,-0.03 ± 0.062
17,L47H,-0.016 ± 0.079
18,L47D,-0.072 ± 0.055
19,L47I,-0.002 ± 0.065
20,D42G,0.091 ± 0.34
21,D42N,0.02 ± 0.11
22,N43D,-0.181 ± 0.12
23,N43Y,-0.043 ± 0.061
24,N43A,0.008 ± 0.039

row,Variant,abundance fitness
1,N43Q,-0.099 ± 0.052
2,N43I,0.019 ± 0.075
3,N43S,0.019 ± 0.042
4,N43T,0.049 ± 0.046
5,N43K,0.1 ± 0.052
6,N43V,0.013 ± 0.037
7,N43R,-0.003 ± 0.03
8,N43L,-0.009 ± 0.036
9,N43F,-0.071 ± 0.068
10,N43P,-0.065 ± 0.052
11,N43M,0.02 ± 0.048
12,N43G,0.053 ± 0.031
13,N43C,-0.115 ± 0.059
14,N43W,-0.008 ± 0.042
15,N43H,0.066 ± 0.082
16,N43E,0.053 ± 0.04
17,R33Y,-0.158 ± 0.042
18,R33W,-0.002 ± 0.043
19,R33C,-0.287 ± 0.04
20,R33M,-0.003 ± 0.039
21,R33N,-0.017 ± 0.035
22,R33G,-0.014 ± 0.031
23,R33E,0.044 ± 0.044
24,R33S,-0.074 ± 0.028

row,Variant,abundance fitness
1,R33K,0.05 ± 0.041
2,R33I,0.004 ± 0.034
3,R33T,-0.012 ± 0.032
4,R33D,-0.005 ± 0.04
5,R33A,0.038 ± 0.035
6,R33L,-0.096 ± 0.028
7,R33V,0.018 ± 0.029
8,R33P,-0.143 ± 0.034
9,R33F,-0.033 ± 0.034
10,T39M,0.046 ± 0.041
11,T39D,0.045 ± 0.062
12,T39Q,-0.033 ± 0.046
13,T39H,0.134 ± 0.092
14,T39P,0.027 ± 0.05
15,T39E,0.048 ± 0.037
16,T39L,-0.052 ± 0.033
17,T39I,0.099 ± 0.052
18,T39S,0.03 ± 0.036
19,T39V,0.05 ± 0.03
20,T39K,0.027 ± 0.044
21,T39A,-0.015 ± 0.037
22,T39R,0.008 ± 0.03
23,T39G,0.045 ± 0.027
24,T39Y,0.006 ± 0.093

row,Variant,abundance fitness
1,T39N,0.03 ± 0.07
2,T39C,0.04 ± 0.051
3,T39W,-0.009 ± 0.039
4,R30C,-0.41 ± 0.061
5,R30G,-0.087 ± 0.029
6,R30M,-0.141 ± 0.048
7,R30F,-0.362 ± 0.11
8,R30S,-0.158 ± 0.037
9,R30E,-0.041 ± 0.041
10,R30A,-0.162 ± 0.041
11,R30V,-0.353 ± 0.038
12,R30T,-0.124 ± 0.041
13,R30K,0.073 ± 0.056
14,R30H,-0.252 ± 0.098
15,R30D,-0.008 ± 0.064
16,R30L,-0.178 ± 0.04
17,R30Q,-0.129 ± 0.049
18,R30P,-0.554 ± 0.072
19,R30W,-0.167 ± 0.042
20,R30I,-0.352 ± 0.07
21,D35G,-0.028 ± 0.25
22,D35Y,-0.131 ± 0.21
23,D35N,-0.164 ± 0.12
